Experimental data published in paper PMC12749748 (Nature Communications, 2025).

Biological target: the molecule itself
Test: cryo-EM structure; IRE1:G6374:VCB complex purified by SEC, cross-linked with 500 µM BS3, 0.005% CTAB added; map at ~2.6 Å

B1: Recombinant human IRE1.KR (G547-L977) (domain or fragment, UniProt O75460 547-977, looked up)
chain: GSSPSLEQDDGDEETSVVIVGKISFCPKDVLGHGAEGTIVYRGMFDNRDVAVKRILPECFSFADREVQLLRESDEHPNVIRYFCTEKDRQFQYIAIELCAATLQEYVEQKDFAHLGLEPITLLQQTTSGLAHLHSLNIVHRDLKPHNILISMPNAHGKIKAMISDFGLCKKLAVGRHSFSRRSGVPGTEGWIAPEMLSEDCKENPTYTVDIFSAGCVFYYVISEGSHPFGKSLQRQANILLGACSLDCLHPEKHEDVIARELIEKMIAMDPQKRPSAKHVLKHPFFWSLEKQLQFFQDVSDRIEKESLDGPIVKQLERGGRAVVKMDWRENITVPLQTDLRKFRTYKGGSVRDLLRAMRNKKHHYRELPAEVRETLGSLPDDFVCYFTSRFPHLLAHTYRAMELCSHERLFQPYYFHEPPEPQPPVTPDAL
stoichiometry N: 2
